Test results as given in patent US20240279288A1, “APPLICATION OF PLANT JAZ PROTEINS AND DERIVED POLYPEPTIDES IN PREVENTION AND TREATMENT OF HUMAN AND ANIMAL TUMORS” (ANYANG INSTITUTE OF SINO-COTTON INDUSTRY INNOVATION, priority 2021, published 2024).

B1: GhJAZ1 after deletion of ZIM domain: GhJAZ1 mutant with ZIM domain deleted, protein sequence SEQ ID No. 85 (protein)
chain: MSSCSESTAMKPARSPEKPSFAQTCNLLSQYLKEKGSFGDLSLGMTCNVEANGTPVVPPPTMNLFPLNDKSDDVCGRNGGNPKNLTSMDLFPQQAGLASKDDSPNKLEPQTASSSQSNNSFNPIPFTSSIARSPIESSIGVPPTSKPVHPAQRAVPGDLPIARRASLHRFLEKRKDRITAKAPYQINNSAAAPSLSGDNKSWLGLAAQSP
B2: GhJAZ9: cotton JAZ9 protein, sequence SEQ ID No. 2, highest homology to AtJAZ9 (protein)
chain: MERDFLGLNSNEPLAVVKDDVNTDKYKQIGFTKSSGIQWPFSNKVFAVPQLMNFNFAQGDKTKKTGYDSKVSPLFMPISTMDASELQKSFNHNWNGGGHFSLTDSHVQHNTNMFPASNQTISVSGSNPFVKNHFTTTGQNFPANTIKPQFLGGVPVTTPHSVLPTLGTVGGSVEPCAQTSGSPAQLTIFYAGEVNVFDDITPEKAQAIMFLAGNGSSMASNSAYPKPPVQTPILKPVQVDSVPANQLINTQLSFGMPSPLPVSSHAGMQSWSGSTSTEEQIICKASVPPTPSTPISKLESPNLVNTMGSDAATGMMPSVPQARKASLARFLEKRKGRIMSTASPYNLISKKSLDYATTMESNA
B3: GhJAZ1 after deletion of Jas domain: GhJAZ1 mutant with Jas domain deleted, protein sequence SEQ ID No. 87 (protein)
chain: MSSCSESTAMKPARSPEKPSFAQTCNLLSQYLKEKGSFGDLSLGMTCNVEANGTPVVPPPTMNLFPLNDKSDDVCGRNGGNPKNLTSMDLFPQQAGLASKDDSPNKLEPQTAPMTIFYGGQVIVFNDFPANKAKEIMLLASNSSSQSNNSFNPIPFTSSIARSPIESSIGVPPTSKPVHPAQRAVPGNNSAAAPSLSGDNKSWLGLAAQSP

Experiments:
Assay type in all cases: binding, cotton
GhNINJA = assay: Yeast two hybrid with GhNINJA
Procedure: (§1) The study on Arabidopsis had shown that the inhibition of JAZ protein on JA signaling was mainly achieved by inhibiting the transcription factor function of MYC, which had been experimentally verified by us in cotton. Based on the phylogenetic tree of Arabidopsis and cotton JAZs, we screened 6 cotton JAZs (GhJAZ1, GhJAZ7, GhJAZ9, GhJAZ10, GhJAZ11 and GhJAZ31), which were analyzed with GhMYC2, GhNINJA, GhTPL, GhHDA6, and GhCOI1 for yeast two hybrid. The amino acid sequence of GhJAZ1 was set forth in SEQ ID No. 4, and the corresponding encoding gene sequence was set forth in SEQ ID No. 39; the amino acid sequence of GhJAZ7 was set forth in SEQ ID No. 7, and the corresponding encoding gene sequence was set forth in SEQ ID No. 42; the amino acid sequence of GhJAZ9 was set forth in SEQ ID No. 2, and the corresponding encoding gene sequence was set forth in SEQ ID No. 37; the amino acid sequence of GhJAZ10 was set forth in SEQ ID No. 3, and the corresponding encoding gene sequence was set forth in SEQ ID No. 38; the amino acid sequence of GhJAZ11 was set forth in SEQ ID No. 5, and the corresponding encoding gene sequence was set forth in SEQ ID No. 40; and the amino acid sequence of GhJAZ31 was set forth in SEQ ID No. 9, and the corresponding encoding gene sequence was set forth in SEQ ID No. 44. […]

GhCOI1 = assay: Yeast two hybrid with GhCOI1; settings: in the presence of JA-Ile
Procedure: as §1, with “44. The amino acid sequence of GhMYC2 was set forth in SEQ ID No. 71, and the corresponding encoding gene sequence was set forth in SEQ ID No. 72; the amino acid sequence of GhNINJA was set forth in SEQ ID No. 73, and the corresponding encoding gene sequence was set forth in SEQ ID No. 74; the amino acid sequence of GhTPL was set forth in SEQ ID No. 75, and the corresponding encoding gene sequence was set forth in SEQ ID No. 76; the amino acid sequence of GhHDA6 was set forth in SEQ ID No. 77, and the corresponding encoding gene sequence was set forth in SEQ ID No. 78; and the amino acid sequence of GhCOI1 was set forth in SEQ ID No. 79, and the corresponding encoding gene sequence was set forth in SEQ ID No. 80.” for “44.”

GhMYC2 [1] = assay: Yeast two hybrid with GhMYC2
Procedure: as §1, with “44. The amino acid sequence of GhMYC2 was set forth in SEQ ID No. 71, and the corresponding encoding gene sequence was set forth in SEQ ID No. 72; the amino acid sequence of GhNINJA was set forth in SEQ ID No. 73, and the corresponding encoding gene sequence was set forth in SEQ ID No. 74; the amino acid sequence of GhTPL was set forth in SEQ ID No. 75, and the corresponding encoding gene sequence was set forth in SEQ ID No. 76; the amino acid sequence of GhHDA6 was set forth in SEQ ID No. 77, and the corresponding encoding gene sequence was set forth in SEQ ID No. 78; and the amino acid sequence of GhCOI1 was set forth in SEQ ID No. 79, and the corresponding encoding gene sequence was set forth in SEQ ID No. 80.” for “44.”

GhMYC2 [2] = assay: Luciferase experiment in tobacco leaves with GhMYC2; settings: no fluorescence on the control
Text: Method of the luciferase experiment: GhJAZ1 (corresponding encoding gene sequence set forth in SEQ ID No. 39) was subcloned into pCAMBIA-CLuc vector (Chen, H., et al. “Firefly Luciferase Complementation Imaging Assay for Protein-Protein Interactions in Plants.” Plant Physiology 146.2(2008):368-376.) between KpnI and SalI cleavage sites, and the transcription factors such as GhMYC2 (corresponding encoding gene sequence set forth in SEQ ID No. 72), GhNINJA (corresponding encoding gene sequence set forth in SEQ ID No. 74), and GhCOI1 (corresponding encoding gene sequence set forth in SEQ ID No. 80) were subcloned into pCAMBIA-NLuc (Chen, H., et al. “Firefly Luciferase Complementation Imaging Assay for Protein-Protein Interactions in Plants.” Plant Physiology 146.2(2008):368-376.) between KpnI and SalI cleavage sites, respectively. […] Luciferase substrates were applied at the infected leaves before taking images and placed in a dark room for at least 6 min to quench fluorescence, followed by observation on the Nightowl-II LB983 instrument, using IndigoBasic software under the luciferase-5 min setting conditions.

GhTPL = assay: Yeast two hybrid with GhTPL
Procedure: as §1, with “44. The amino acid sequence of GhMYC2 was set forth in SEQ ID No. 71, and the corresponding encoding gene sequence was set forth in SEQ ID No. 72; the amino acid sequence of GhNINJA was set forth in SEQ ID No. 73, and the corresponding encoding gene sequence was set forth in SEQ ID No. 74; the amino acid sequence of GhTPL was set forth in SEQ ID No. 75, and the corresponding encoding gene sequence was set forth in SEQ ID No. 76; the amino acid sequence of GhHDA6 was set forth in SEQ ID No. 77, and the corresponding encoding gene sequence was set forth in SEQ ID No. 78; and the amino acid sequence of GhCOI1 was set forth in SEQ ID No. 79, and the corresponding encoding gene sequence was set forth in SEQ ID No. 80.” for “44.”

Chain of GhMYC2 (as listed by the source): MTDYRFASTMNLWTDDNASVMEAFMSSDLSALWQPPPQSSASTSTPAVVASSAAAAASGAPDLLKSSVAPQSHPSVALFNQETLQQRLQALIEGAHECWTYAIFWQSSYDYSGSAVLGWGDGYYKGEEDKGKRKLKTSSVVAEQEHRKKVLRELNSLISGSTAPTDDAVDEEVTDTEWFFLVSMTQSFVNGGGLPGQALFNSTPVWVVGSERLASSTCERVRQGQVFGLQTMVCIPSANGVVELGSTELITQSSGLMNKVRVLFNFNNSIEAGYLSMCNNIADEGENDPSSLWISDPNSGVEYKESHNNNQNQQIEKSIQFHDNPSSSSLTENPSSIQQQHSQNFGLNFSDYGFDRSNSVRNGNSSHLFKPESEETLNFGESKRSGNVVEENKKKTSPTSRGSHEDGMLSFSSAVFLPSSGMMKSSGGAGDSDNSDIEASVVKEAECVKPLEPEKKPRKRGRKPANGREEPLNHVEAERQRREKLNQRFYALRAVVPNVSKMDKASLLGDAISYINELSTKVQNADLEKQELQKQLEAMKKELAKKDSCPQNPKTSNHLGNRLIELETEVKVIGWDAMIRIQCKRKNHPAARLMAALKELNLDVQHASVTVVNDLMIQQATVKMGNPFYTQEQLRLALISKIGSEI
Chain of GhCOI1 (as listed by the source): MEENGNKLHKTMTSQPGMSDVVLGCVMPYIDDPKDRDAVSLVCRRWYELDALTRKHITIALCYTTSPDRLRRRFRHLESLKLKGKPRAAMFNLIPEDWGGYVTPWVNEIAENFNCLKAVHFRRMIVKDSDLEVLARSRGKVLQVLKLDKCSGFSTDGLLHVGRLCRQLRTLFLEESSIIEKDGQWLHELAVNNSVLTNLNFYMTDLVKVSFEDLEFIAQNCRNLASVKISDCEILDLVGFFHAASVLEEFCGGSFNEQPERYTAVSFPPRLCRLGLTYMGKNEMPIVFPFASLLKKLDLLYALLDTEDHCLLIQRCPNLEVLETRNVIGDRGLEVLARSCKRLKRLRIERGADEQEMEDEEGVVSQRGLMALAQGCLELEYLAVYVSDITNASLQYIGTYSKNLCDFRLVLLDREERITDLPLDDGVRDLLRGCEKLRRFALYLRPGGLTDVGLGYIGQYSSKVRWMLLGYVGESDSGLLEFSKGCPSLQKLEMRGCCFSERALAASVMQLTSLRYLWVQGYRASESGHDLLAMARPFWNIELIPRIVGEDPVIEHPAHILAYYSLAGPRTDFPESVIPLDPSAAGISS
Chain of GhNINJA (as listed by the source): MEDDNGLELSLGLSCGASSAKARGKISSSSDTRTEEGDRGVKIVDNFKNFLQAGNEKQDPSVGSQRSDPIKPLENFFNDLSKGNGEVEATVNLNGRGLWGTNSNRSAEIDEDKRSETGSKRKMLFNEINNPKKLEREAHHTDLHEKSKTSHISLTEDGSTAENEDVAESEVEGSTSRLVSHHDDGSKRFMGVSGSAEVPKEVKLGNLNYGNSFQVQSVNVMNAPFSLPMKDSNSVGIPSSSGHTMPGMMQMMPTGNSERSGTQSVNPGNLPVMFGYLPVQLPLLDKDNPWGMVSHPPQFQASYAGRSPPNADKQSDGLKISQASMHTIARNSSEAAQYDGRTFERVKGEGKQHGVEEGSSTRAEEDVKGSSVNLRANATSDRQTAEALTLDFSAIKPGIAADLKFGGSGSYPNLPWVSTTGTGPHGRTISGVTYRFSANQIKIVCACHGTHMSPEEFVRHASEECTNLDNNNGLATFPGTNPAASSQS
Chain of GhTPL (as listed by the source): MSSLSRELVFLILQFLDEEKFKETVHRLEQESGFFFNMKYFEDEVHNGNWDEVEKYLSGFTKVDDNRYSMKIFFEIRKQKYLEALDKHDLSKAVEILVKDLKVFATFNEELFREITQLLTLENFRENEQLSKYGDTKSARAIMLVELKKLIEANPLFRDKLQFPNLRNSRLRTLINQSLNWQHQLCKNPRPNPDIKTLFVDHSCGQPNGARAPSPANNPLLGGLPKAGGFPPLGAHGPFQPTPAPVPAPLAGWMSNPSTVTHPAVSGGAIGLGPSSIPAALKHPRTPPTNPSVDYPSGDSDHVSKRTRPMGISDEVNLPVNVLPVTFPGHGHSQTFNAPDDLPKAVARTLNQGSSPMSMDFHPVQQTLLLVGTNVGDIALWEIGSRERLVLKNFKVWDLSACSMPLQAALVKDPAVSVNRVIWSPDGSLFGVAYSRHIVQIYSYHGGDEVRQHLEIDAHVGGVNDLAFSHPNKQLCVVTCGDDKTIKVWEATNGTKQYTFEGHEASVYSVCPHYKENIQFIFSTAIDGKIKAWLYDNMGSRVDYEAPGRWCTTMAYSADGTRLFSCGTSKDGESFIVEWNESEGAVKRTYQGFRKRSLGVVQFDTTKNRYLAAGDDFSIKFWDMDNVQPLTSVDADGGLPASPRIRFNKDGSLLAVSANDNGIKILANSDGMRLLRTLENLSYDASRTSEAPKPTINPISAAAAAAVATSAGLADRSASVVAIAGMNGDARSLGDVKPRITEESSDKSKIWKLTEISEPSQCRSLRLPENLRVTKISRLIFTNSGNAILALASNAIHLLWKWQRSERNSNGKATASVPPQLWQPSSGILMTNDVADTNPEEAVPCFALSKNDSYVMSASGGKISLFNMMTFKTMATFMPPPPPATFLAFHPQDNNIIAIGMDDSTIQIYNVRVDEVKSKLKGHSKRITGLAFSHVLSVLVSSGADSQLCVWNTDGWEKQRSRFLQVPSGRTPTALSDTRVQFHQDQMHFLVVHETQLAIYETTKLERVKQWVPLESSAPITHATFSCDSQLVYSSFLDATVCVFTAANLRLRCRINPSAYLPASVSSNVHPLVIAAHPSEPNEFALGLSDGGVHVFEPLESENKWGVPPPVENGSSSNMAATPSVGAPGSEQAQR

Row | fluorescence with GhMYC2 after applying luciferase substrate (GhMYC2 [2]) | Molecule | interaction with GhNINJA (GhNINJA) | interaction with GhCOI1 (GhCOI1) | interaction with GhMYC2 (GhMYC2 [1]) | interaction with GhTPL (GhTPL)
1 |  | B1 | significantly weakened | significantly weakened | significantly weakened | 
2 | weaker fluorescence | B2 |  |  | weak | 
3 |  | B3 |  | significantly weakened |  | significantly weakened
